Measured values from patent US20200239586A1 (LA TROBE UNIVERSITY, published 2020).
Ends that are not written are not given here. * marks the point of attachment. Biotin = O=C1N[C@H]2[C@H](CS[C@H]2CCCCC(=O)*)N1

T1: synthetic peptide hFn14 sub-domain 3 (human, cysteine pairing not given here)
T1 construct: also called sub-domain 3 peptide
T1 peptide: ASCRARPHSDFCLGK(Biotin)


Key:
[1] = molecular target: T2, His tagged hFn14 extracellular region mutant R56K (human, UniProt Q9NP84 28-77); assay: ELISA with purified His-tagged hFn14 R56K; x axis 'Log (c)' without unit, µg/ml by the legend
T2 construct: not shown: (His)6 tag

[2] = molecular target: T1, synthetic peptide hFn14 sub-domain 3; assay: ELISA on biotinylated sub-domain 3 peptide, mAb at 0.2 ug/ml
Procedure: An additional lysine residue was added to the C-terminus in order to attach a biotin moiety and to enable the peptides to bind to neutravidin coated plates (Pre-blocked; Pierce). For these experiments, a control peptide with a biotin at the C-terminus was used as a negative control and isotype control antibodies were also used.
The ELISA was performed essentially according to the manufacturer's recommended protocol (Pierce). Briefly, peptide was coated onto wells (in duplicate) at 1-10 μg/ml for 2 hours at room temperature. Wells were washed in PBS/0.05% Tween 20/0.1% BSA 3 times and dilutions of each antibody were added in wash buffer for 1 hour with gentle agitation. After another three washes anti-mouse HRP-conjugated to horse radish peroxidase (HRP; Chemicon) was added at 1/1000 dilution for 1 hour shaking. Finally, after 4 further washes the plate was developed using TMB (3,3′,5,5′-tetramethylbenzidine) substrate (Pierce), and the reaction was stopped using 2M H2SO4 solution. Optical density at 450 nm was quantified using a Spectromax absorbance spectrophotometer.
The reactivity of CRCBT-06-001 CRCBT-06-002, CRCBT-06-003, CRCBT-06-004, CRCBT-06-005, CRCBT-06-006 and CRCBT-06-007 with sub-domain 3 was lower than for sub-domain 2, indicating this region may be a partial epitope for these antibodies. However, the differences in binding to this region could reveal subtle variations in the contact regions of the antibodies with hFn14. The order of binding from strongest to weakest was CRCBT-06-005, CRCBT-06-002, CRCBT-06-001, CRCBT-06-006, CRCBT-06-007 and ITEM-1. The relative binding of each antibody to sub-domain 3 at a single point in the linear region of the curves was measured at 0.2 µg/ml (FIG. 21C). […] This could indicate the epitope of ITEM-1 may differ slightly to the CRCBT antibodies based on weaker interaction with surface exposed residues in sub-domain 3.

[3] = molecular target: T3, His tagged hFn14 extracellular region mutant R56P (human, UniProt Q9NP84 28-77); assay: ELISA with purified His-tagged hFn14 R56P; x axis 'Log (c)' without unit, µg/ml by the legend
T3 construct: also called R56P mutant; not shown: (His)6 tag

[4] = molecular target: T4, Histidine tagged hFn14 extracellular domain, bacterially expressed (human, UniProt Q9NP84 28-77); assay: SPR (ProteOn XPR36), mAb coupled to chip, His-tagged hFn14 analyte, Langmuir 1:1 fit
T4 construct: also called recombinant Fn14; recombinant human Fn14; not shown: (His)6 tag from pET-15b
Procedure: The kinetic analysis of the monoclonal antibodies was performed on a ProteOn XPR36 system (BioRad) Laboratories) essentially according to the protocol from Nahshol et al (2008). Monoclonal antibodies against hFn14 (50 μg/ml) were covalently coupled to a GMC chip. Analytes were a serial dilution of bacterially expressed and purified Histidine tagged hFn14. The binding sensorgrams were collected, processed and analyzed using the integrated ProteOn Manager software (BioRad Laboratories). Binding curves were fitted using the Langmuir model describing 1:1 binding stoichiometry.
Binding kinetics of anti-Fn14 antibodies CRCBT-06-001, CRCBT-06-002, CRCBT-06-004, ITEM-1 and ITEM-4 were assessed as described herein and results are set out in Table 4.

[5] = molecular target: phage expressed hFn14 mutant F63A (human, UniProt Q9NP84 28-77); assay: phage ELISA (Method 2): antibody coated on the plate, 10-fold dilutions of phage displaying hFn14 F63A; HRP-conjugated anti-M13 phage polyclonal IgG, TMB, OD 450 nm; x axis = dilution of phage
Excerpt: For mutants P59A and F63A, binding was detected using HRP-conjugated anti-M13-phage polyclonal IgG and TMB substrate. For all other mutants binding was detected using Biotin-conjugated anti-M13-phage monoclonal antibody followed by HRP-conjugated Streptavidin and TMB substrate. Optical density at 450 nm was quantified using a Spectramax spectrophotometer. Error bars for each dilution represent the standard deviation of duplicate assays. FIG. 27A wild type Fn14, FIG. 27B W42A, FIG. 27C S54A, FIG. 27D A57G, FIG. 27E P59A, FIG. 27F S61A, FIG. 27G F63A, FIG. 27H L65A. In all cases error bars represent the standard deviation. X axis=dilution of phage. Methods according to Epitope mapping using phage expressed Fn14—Method 2
The wells of Maxisorp immunoplates (Nunc) were coated overnight at 4° C. with the target monoclonal antibodies or recombinant Tweak-Fc at a concentration of 1.5 μg/ml in PBS. mAb 5G8 was used as a negative control for ELISA plates coated with tested antibodies. […] 10-fold serial dilutions of phage were made using PBS solution and phage dilutions were added to the coated, blocked ELISA plates for 1 hour, shaking at room temperature. Phage was subsequently removed from the wells and the ELISA plates were washed three times with PBS/0.05% Tween 20. […]

Row | binding result [1] | % decrease in binding compared with CRCBT-06-005 [2] | binding result [3] | Kd [4] | koff [4] | kon [4] | binding result [5] | Binder
1 | binds | 43% | binds | 0.198 nM | 2.59e-05 s⁻¹ | 131000 M⁻¹ s⁻¹ | binds | CRCBT-06-002 (antibody, IgG1, V domains shown) VH: EVKLQQSGGGLVQPGGSMKLSCVASGFTFSYYWMNWVRQSPEQGLEWIAEIRLQSNDYPTHYAESVKGRFTISRDDSKNSVYLQMNNLRPEDTGIYYCACRYADYFDHWGQGTTLTVSS VL: DTVLTQSPASLVVSLGQRATISCRASQSVSTSDYSYIHWYQQKPGQPPKFLIKYASNRDSGVPARFSGSGSGTDFTLNIHPVEEDDTAIYYCQHSWEIPPTFGAGTKLELQR
2 | binds | 60% | binds | 0.55 nM | 0.000102 s⁻¹ | 186000 M⁻¹ s⁻¹ | binds | CRCBT-06-001 (antibody, IgG2b, V domains shown) VH: QVQLQQSGGGLVQPGGSMKLSCIASGFTFSSYWMSWVRQSPEKGLEWVAEIRSKSDNYATHYAESVKGKFTISRDDSKSRFFLQMNNLRAEDTGIYYCSSTYADYFHYWGQGTDLTVSS VL: DIVMTQTPASLAVSLGQRATISCRASQSVSTSTYSYMHWYQQKPGQPPKLLIKYASSLESGVPARFSGSGSGTDFTLNIHPVEEDDTATYYCQHSWEIPYTFGGGTKLEIKR
